No end group written: not given here. *: point of attachment. 5FAM = O=C1OC2(c3ccc(O)cc3Oc3cc(O)ccc32)c2ccc(C(=O)*)cc21
Target: HLA-A*03:01 (recombinant soluble heavy chain with β2-microglobulin) (human)
Assay: fluorescence polarisation

t1/2 of dissociation: 4.68 min
Binder: AHHGK(5FAM)WTTK [pWT peptide fluorescently labeled at P5 (5-carboxyfluorescein-modified lysine in place of P5 Gly)]
